Results from article doi:10.1101/2022.03.21.485124.
One block for each substance: values may come before it.

Assays:
Test in all cases: SEC
[1] = biological target: human CD81 large extracellular loop domain, mutant D139N (human)
[2] = biological target: human CD81 large extracellular loop domain, mutant E188Q (human)
[3] = biological target: wild-type human CD81 large extracellular loop domain (wt-hCD81LEL) (human)

stoichiometry N [1]: 2
Substance: human CD81 large extracellular loop domain, mutant D139N (domain or fragment)

stoichiometry N [2]: 2
Substance: human CD81 large extracellular loop domain, mutant E188Q (domain or fragment)

stoichiometry N [3]: 2
Substance: wild-type human CD81 large extracellular loop domain (wt-hCD81LEL) (domain or fragment)
